Legend:
[1] = target: Collagen I Rat Protein, Tail (rat collagen type I) (rat) (UniProt P02454); assay: whole-cell adhesion assay (fluorescence of sfGFP-expressing bacteria); commercial 96-well plates pre-coated with rat collagen type I (GIBCO); YadA induced with 0.2 µg/ml ATc, compared with the not-induced control
[2] = target: Collagen I Bovine Protein (bovine collagen type I) (bovine) (UniProt P02453); assay: whole-cell adhesion assay (fluorescence of sfGFP-expressing bacteria); strain AS76; wells coated with 100 µg/ml bovine collagen type I for 30 min, with or without blocking with 50 mg/ml BSA in PBS for 30 min; YadA induced with 0.1 µg/ml ATc, compared with uninduced cells
Chain of UniProt P02453 (P02453 162-1217, chain 1 of 2): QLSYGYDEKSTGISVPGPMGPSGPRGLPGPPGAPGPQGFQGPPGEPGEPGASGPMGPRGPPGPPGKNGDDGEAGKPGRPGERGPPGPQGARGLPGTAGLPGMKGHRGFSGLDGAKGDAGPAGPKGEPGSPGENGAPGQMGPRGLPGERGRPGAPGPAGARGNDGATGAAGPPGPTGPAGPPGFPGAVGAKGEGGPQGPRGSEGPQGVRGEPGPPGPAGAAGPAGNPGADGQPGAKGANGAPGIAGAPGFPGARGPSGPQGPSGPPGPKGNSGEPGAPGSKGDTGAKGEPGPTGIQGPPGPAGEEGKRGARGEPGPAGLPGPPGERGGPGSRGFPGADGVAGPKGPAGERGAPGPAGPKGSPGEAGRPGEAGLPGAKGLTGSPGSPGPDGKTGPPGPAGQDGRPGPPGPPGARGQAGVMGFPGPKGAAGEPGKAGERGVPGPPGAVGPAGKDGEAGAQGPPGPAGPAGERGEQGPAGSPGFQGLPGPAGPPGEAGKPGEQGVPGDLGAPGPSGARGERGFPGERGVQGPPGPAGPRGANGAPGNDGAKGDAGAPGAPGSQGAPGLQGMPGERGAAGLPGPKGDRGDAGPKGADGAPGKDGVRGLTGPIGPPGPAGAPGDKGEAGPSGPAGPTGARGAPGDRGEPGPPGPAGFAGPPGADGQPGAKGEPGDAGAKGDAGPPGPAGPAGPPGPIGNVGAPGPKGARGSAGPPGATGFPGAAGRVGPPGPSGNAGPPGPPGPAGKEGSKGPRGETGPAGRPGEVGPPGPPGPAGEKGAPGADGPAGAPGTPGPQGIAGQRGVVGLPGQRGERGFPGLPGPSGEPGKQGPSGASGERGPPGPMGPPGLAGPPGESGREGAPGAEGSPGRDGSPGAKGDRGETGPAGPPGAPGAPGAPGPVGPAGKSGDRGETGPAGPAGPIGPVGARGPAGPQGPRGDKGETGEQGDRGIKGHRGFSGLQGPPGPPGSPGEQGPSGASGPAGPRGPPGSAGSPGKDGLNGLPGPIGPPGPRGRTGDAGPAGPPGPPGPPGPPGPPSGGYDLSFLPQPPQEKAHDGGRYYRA
Chain of UniProt P02453 (P02465 80-1117, chain 2 of 2, further chain): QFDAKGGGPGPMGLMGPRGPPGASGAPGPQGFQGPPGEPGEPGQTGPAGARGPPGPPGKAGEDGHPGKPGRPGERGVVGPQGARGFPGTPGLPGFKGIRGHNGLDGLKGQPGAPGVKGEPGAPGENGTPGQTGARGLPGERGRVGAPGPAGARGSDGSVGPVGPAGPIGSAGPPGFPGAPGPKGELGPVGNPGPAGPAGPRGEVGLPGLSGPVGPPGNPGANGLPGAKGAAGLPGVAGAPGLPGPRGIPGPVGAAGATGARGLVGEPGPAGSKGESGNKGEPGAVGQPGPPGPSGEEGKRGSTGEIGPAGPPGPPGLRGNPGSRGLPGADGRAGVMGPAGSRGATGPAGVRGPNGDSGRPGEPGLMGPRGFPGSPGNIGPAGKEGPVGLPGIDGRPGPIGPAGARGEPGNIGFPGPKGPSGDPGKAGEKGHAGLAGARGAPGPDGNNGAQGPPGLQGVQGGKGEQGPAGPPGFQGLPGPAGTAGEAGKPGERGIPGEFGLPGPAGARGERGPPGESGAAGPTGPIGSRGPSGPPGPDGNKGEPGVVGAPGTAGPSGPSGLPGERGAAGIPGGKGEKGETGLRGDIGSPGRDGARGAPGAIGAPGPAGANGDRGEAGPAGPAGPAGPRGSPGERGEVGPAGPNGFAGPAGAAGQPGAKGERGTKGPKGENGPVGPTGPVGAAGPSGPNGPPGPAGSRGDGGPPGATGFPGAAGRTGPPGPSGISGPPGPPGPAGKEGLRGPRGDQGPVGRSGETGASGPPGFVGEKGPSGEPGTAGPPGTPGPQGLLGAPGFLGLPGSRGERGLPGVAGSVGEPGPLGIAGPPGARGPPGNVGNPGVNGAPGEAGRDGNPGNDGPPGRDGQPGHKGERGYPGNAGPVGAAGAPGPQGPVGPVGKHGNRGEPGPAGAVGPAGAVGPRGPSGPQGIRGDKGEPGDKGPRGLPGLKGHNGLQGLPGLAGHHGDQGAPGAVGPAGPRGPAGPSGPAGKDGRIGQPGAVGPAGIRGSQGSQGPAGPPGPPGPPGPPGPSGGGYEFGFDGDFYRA

Chain of UniProt P02454 (P02454 152-1207, chain 1 of 2): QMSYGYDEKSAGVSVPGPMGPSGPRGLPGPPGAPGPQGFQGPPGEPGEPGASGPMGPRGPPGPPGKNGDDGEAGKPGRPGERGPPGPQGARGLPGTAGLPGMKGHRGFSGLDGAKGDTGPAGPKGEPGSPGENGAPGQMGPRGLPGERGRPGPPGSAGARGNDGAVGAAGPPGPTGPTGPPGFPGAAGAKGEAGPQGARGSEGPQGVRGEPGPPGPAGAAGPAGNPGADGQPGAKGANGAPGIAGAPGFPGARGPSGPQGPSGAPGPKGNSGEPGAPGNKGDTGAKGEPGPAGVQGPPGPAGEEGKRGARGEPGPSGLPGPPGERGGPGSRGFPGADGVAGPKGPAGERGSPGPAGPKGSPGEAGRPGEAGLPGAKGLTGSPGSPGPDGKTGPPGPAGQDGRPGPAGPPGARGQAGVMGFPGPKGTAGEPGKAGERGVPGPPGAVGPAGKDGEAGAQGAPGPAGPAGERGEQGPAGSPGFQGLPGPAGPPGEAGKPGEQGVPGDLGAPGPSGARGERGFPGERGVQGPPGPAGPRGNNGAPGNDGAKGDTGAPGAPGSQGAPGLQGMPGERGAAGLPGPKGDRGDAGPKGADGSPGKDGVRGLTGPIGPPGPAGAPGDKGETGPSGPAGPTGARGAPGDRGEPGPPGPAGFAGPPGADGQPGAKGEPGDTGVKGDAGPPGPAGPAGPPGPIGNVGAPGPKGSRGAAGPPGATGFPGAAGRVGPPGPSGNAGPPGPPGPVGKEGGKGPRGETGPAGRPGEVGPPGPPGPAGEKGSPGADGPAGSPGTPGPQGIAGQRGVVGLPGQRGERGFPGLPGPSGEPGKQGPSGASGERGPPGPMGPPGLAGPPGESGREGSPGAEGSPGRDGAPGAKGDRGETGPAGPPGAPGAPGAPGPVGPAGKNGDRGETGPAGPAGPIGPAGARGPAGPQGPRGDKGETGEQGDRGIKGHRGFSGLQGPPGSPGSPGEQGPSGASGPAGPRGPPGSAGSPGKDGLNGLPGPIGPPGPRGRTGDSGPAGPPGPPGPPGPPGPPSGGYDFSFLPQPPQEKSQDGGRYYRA
Chain of UniProt P02454 (P02466 86-1125, chain 2 of 2, further chain): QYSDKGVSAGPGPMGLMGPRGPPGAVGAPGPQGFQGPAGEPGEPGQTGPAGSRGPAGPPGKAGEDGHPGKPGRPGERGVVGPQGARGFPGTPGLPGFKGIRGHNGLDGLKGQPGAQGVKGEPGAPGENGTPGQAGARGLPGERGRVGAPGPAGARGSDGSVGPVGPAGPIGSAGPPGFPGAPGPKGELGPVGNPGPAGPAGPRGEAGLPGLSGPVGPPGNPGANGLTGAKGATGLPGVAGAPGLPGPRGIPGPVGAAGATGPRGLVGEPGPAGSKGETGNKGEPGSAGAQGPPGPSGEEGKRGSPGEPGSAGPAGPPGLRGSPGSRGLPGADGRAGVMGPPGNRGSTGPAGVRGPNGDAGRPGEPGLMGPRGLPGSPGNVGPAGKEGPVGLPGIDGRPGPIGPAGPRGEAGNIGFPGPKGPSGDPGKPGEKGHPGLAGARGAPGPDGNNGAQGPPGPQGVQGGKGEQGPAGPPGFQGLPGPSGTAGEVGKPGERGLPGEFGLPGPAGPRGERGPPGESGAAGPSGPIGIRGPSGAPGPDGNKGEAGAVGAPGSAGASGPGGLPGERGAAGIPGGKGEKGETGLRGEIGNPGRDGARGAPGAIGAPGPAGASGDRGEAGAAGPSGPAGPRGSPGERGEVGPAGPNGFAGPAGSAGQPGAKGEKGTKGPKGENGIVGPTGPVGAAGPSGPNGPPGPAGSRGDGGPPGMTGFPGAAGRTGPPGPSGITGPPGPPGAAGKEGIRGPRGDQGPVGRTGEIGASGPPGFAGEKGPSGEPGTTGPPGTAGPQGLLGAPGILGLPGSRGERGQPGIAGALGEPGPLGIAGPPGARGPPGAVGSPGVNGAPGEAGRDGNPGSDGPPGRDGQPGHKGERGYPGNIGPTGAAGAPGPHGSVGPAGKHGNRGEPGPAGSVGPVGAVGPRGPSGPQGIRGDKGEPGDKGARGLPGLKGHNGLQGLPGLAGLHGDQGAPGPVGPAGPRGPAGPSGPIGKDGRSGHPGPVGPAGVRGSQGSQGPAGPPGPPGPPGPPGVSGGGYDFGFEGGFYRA

Which fold difference of signal, induced against not-induced control [1] does the source give for “Yersinia enterocolitica Adhesin A (YadA), wild type, on the surface of E. coli cells (from UniProt A1JUB7 26-422) (natural protein)” here?
Its fold difference of signal, induced against not-induced control is 2.5 fold.

And the fold change of signal, YadA-expressing against uninduced cells (collagen-coated, BSA-blocked wells) [2]?
The fold change of signal, YadA-expressing against uninduced cells (collagen-coated, BSA-blocked wells) was 4.1 fold.

What about the fold change of signal, YadA-expressing against uninduced cells (collagen-coated, not BSA-blocked wells) [2] of the same substance?
Its fold change of signal, YadA-expressing against uninduced cells (collagen-coated, not BSA-blocked wells) is 4.4 fold.

From PMC7388967
